Test system: K4 kissing-loop RNA reporter
Assay: apparent KD of K4 kissing-loop reporter; higher = weaker reporter binding
Details: Eterna round: R107
Experimental: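 RNA-MaP round R107: designed RNA switches with theophylline, tryptophan, arginine or FMN aptamers are transcribed on-chip within common flanks. They are titrated with a labelled K4 kissing-loop RNA reporter in RNA-MaP buffer (100 mM Tris pH 7.5, 80 mM KCl, 4 mM MgCl2), without ligand or with the indicated ligand. Median apparent KD per design.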

[1] = input ligand: theophylline 20 uM
[2] = input ligand: tryptophan 2.4 mM
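Note: bound reporter read as fluorescence of individual clusters on recovered sequencing chips by microscopy, with normalized cluster intensities fitted with a binding model.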

Sequence | apparent KD of K4 kissing-loop reporter (input ligand: FMN 200 uM) | apparent KD of K4 kissing-loop reporter (input ligand: arginine 13.2 mM) | apparent KD of K4 kissing-loop reporter (input ligand: none) | apparent KD of K4 kissing-loop reporter [1] | apparent KD of K4 kissing-loop reporter [2]
UGGAGUUGACGAAAAGUCAACUCCAGAGAAGGAGCGGACGAAAGUCCAGGUAGGUCGCUCACUACCAGUGAUGUUGGUACUUGAA | 220 nM | 335 nM | 255 nM | 449 nM | 218 nM
UGGAGUUGACGAAAAGUCAACUCCUGAGAUACCAGUGACGAAGGUCACCCUUGGCAGCUCACUGCUAGUGAUGUUGGAAGAUAAA [whbob_SS_Theo_A_w48] | 1390 nM | 276 nM | 913 nM | 2350 nM | 792 nM
UGGAGUUGACGAAAAGUCAACUCCUGGGAAGGAGCGGACGAAAGUCCAGGUAGGUCGCCCACUACCAGUGAUGUUGGUACUUCAA | 241 nM | 274 nM | 271 nM | 254 nM | 209 nM
UGGAUAUAGUGAUGUUAUAUAGAGAGGGAUACCAGUUUAGAGAAGAACCCUUGGCAGCCUAAAGAAGUAUCAUUAGAGAAGAAUG [ExTheophyl.An] | 370 nM | 229 nM | 253 nM | 324 nM | 241 nM
UGGCGGACGAUCCGGAGUGAUGUUCCGGAUACCAGCAGAAGAGCCUGCCCUUGGCAGCCGUGCGACGCUGGGAGAGUCCGGCGUC [Requered] | 104 nM | 88 nM | 104 nM | 107 nM | 99.7 nM
UGGGAUGGGCGAGGAUAUGGUGAGGUGGCGGUUGUUAGUGAUGUUGGUGAUGCUAGUGAUGUUUGUCCAGAAGGCGCGGGAUUUU [BDazzled] | 218 nM | 104 nM | 171 nM | 179 nM | 168 nM
UGGGAUGUUAAAGGAUAUAGAAAGUGAUAUUAGAAAGUGAGUGAUGUUGAUGUAAGUGAUGAUAUGUUAGAAGGUUAACAAAACG [abcd] | 431 nM | 363 nM | 499 nM | 472 nM | 379 nM
UGGGUGUAGUGAUGUUAUAUAGAGAGUGAUACCAGCUUAGAGAGAAGCCCUUGGCAGCAUAGAAGAGUAUCAUUGGAGGAGGAGG [ExTheophyl.Ay] | 680 nM | 527 nM | 609 nM | 668 nM | 401 nM
UGGGUUGGAAGUGAUGUUUCUCUAAGUGAUACCAGACAAAAGAAAGUCCCUUGGCAGCACAAUGAUGCCAAGGAAACGGCAUGAU [#16 K4 Theophylline A Same State] | 229 nM | 244 nM | 260 nM | 250 nM | 195 nM
UGUAAGCGCGUAGAUACCAGCAGACGAGUGAUGUUCGAGAGAUUAAGGAAAAGAAAGUAAUGCCCUUGGCAGCUAAUCAUAAGCG [whbob_Ex_Theo_B_sa94] | 248 nM | 335 nM | 264 nM | 301 nM | 174 nM
UGUACCGAGUCAGGAUAUAGCGUCGAAAGACGAAUCCUAGUGAUGUUAGGGAUCUGCGAAAGCAGUCUAGAAGGGACUUGGUACU [FmnBS 26 A19+U68] | 275 nM | 278 nM | 295 nM | 293 nM | 291 nM
UGUAUGUGAUUUGAUACCAGACCAGCUGGUGGUAUAUGAGUGAUGUUCAUGUUGGUGUGGGUCCCUUGGCAGCAAAUCGCAUACU [KL-SSTheoB9] | 242 nM | 161 nM | 237 nM | 164 nM | 183 nM
UGUAUGUGAUUUGAUACCAGACCAGCUGGUGUUAGAUGAGUGAUGUUGAUCUAGGGUUGGGUCCCUUGGCAGCAAAUCGCAUACU [KL-SSTheoB22] | 593 nM | 391 nM | 557 nM | 435 nM | 463 nM
UGUAUGUGAUUUGAUACCAGACCAUCUUGUGAGAAGUGAGUGAUGUUUAUUUUGGUUUGGGUCCCUUGGCAGCAAAUCGCAUACU [KL-SSTheoB23] | 777 nM | 560 nM | 826 nM | 619 nM | 738 nM
UGUCAUUGGUCGGCCGCCACUAAAUAAAAGAGUGAUGUUCUUAAGACGGAUCGAAAGAUCUGUCAUAGGACCGGGACCGAUGACU [TrypBS 21 #SwitchBubble #StaticStem] | 1200 nM | 891 nM | 1080 nM | 888 nM | 667 nM
UGUCAUUGGUCGGCCGCCACUAGGACCGGGUAUAACCUAGUGAUGUUAGUGAGUACGGCCGCCACUAGGACCGGGACCGAUGACU [KL-SSTryp-B120 #DoubleAptamer] | 531 nM | 319 nM | 857 nM | 572 nM | 91.9 nM
UGUCAUUGGUCGGCCGCCACUCCAUAACGAGUGAUGUUCUAAAAGACGGAUCGAAAGAUCUGUCGGAGGACCGGGACCGAUGACU [FiskerMod 6 - Jieux - Same State - Tryptophan B] | 558 nM | 308 nM | 622 nM | 274 nM | 1140 nM
UGUCAUUGGUCGGCCGCCACUUCAUAUAGAGUGAUGUUCUGAAAGACGGAUCGAAAGAUCUGUCGAAGGACCGGGACCGAUGACU [FiskerMod 12 - Jieux - Same State - Tryptophan B] | 1100 nM | 810 nM | 1640 nM | 1100 nM | 268 nM
UGUCAUUGGUCUGAUACCAGAAGAAAUCUGGAGUGAUGUUCCAAGUCGACAAAAUGUCGCUUCCCUUGGCAGCAGACCGAUGACU [TheoBS 23 #SwitchBubble 13 #StaticStem] | 393 nM | 331 nM | 377 nM | 222 nM | 349 nM
UGUCAUUGGUCUGAUACCAGUACCCUUGGCAGCCAAGGAGUGAUGUUCCAAGGAUACCAGUGCCCUUGGCAGCAGACCGAUGACU [TheoBS 12 #DoubleAptamer #SwitchBubble] | 920 nM | 563 nM | 1120 nM | 613 nM | 901 nM
UGUCAUUGGUCUGAUACCAGUUAGACCGAUAGGUCAAAACUGGAGUGAUGUUCCCAAAAUAACCCUUGGCAGCAGACCGAUGACU [TheoBS 3 #SwitchBubble #StaticStem] | 280 nM | 149 nM | 152 nM | 282 nM | 191 nM
UGUGAGCUGUCGACAAAAGUCGACUAAAAUGAGGAUAUGACGAAAGUCAGAAGGCAUCAAUAAUGGAGUGAUGUUCCUGCUCACU [FmnA 9 U30+A56] | 373 nM | 432 nM | 809 nM | 790 nM | 763 nM

Sequence | apparent KD of K4 kissing-loop reporter (input ligand: FMN 200 uM) | apparent KD of K4 kissing-loop reporter (input ligand: arginine 13.2 mM) | apparent KD of K4 kissing-loop reporter (input ligand: none) | apparent KD of K4 kissing-loop reporter [1] | apparent KD of K4 kissing-loop reporter [2]
UGUGAUGAGUAGAGUGAUGUUUUGAAGGAUACCAGAGUGUUGUUAUUCCCUUGGCAGCUUGAGUGAUGUUUGAUGUUGUUGUUGU [rcrrmullin] | 328 nM | 221 nM | 253 nM | 205 nM | 211 nM
UGUGAUGUUGUGAUGUUUAGUGUUGUUGGGCAGGAUAUUGUAGAGGCGAGAAGGGCUAGUGUGAUGUAUGAGUGAUGUUUGUAGU [kkollmullin] | 127 nM | 111 nM | 246 nM | 177 nM | 186 nM
UGUGGAGAAUAUGAUACCAGCAGUGAGAGAGAGGAAGUAUAGUGAUGUUAUAUGAGAGAAUGCCCUUGGCAGCAUAUGAAGAAGG [SSTheophylB.E] | 174 nM | 120 nM | 148 nM | 138 nM | 115 nM
UGUGUUUACCUGACUCAGUGAUGUUGAGAAGGAGCGUGGGAAACCACAGGUAGGUCGCUCAACCUAAAUUCAGGUGAGCACUAAA | 327 nM | 219 nM | 399 nM | 303 nM | 231 nM
UUAAUAAUUCAAGGAUAUGUUUUCUAUUUCGAGUGAUGUUCGGAAUUAAUAAAUUUAAAAGAUUAUACAGAAGGUGAUAAAUAGU [Cynwulf-mod#2] | 87.1 nM | 92.8 nM | 85.9 nM | 115 nM | 81.1 nM
UUAGAGAUCUCAGGAUAUCAGUGAUGUUGUAAUCCAGAUCUGAGAUAGAAUUCUAUCUCAGAUCAAUGAGAAGGGAGAUCUCAUU [AK4.2 Exc FMN B] | 306 nM | 601 nM | 723 nM | 576 nM | 591 nM
UUAGUGACAAGUCAGAUUCUGACAAUUGAUACCAGAUAGAAUUCUAUCCCUUGGCAGCAGUGAUGUUGUUGCAAAUAGUCACAUU [AK3 Exc Theophylline A] | 263 nM | 209 nM | 251 nM | 242 nM | 232 nM
UUAUAACCCAGUGAUGUUGGGUAGCGGCCACGAGGACCGGUACGGCCGCCACUCGAGGUUUGACCAGUGAUGUUGGACUAUUUGG [Same state Tryptophan A GF 5] | 163 nM | 134 nM | 156 nM | 147 nM | 47.1 nM
UUAUAUUUUAUAUUUAGAUGAUCUAUAGCACGAGGACCGGUACGGCCGCCACUCGAGUGAUGUUCGAGAGCUAUAGAUCAUCAUU [AK2.2 EXC Tryptophan A] | 142 nM | 132 nM | 148 nM | 121 nM | 207 nM
UUAUAUUUUAUAUUUAGUAGAGCUCUAGCUCGAGGACCGGUACGGCCGCCACUCGAGUGAUGUUCGAGUGGGUGAGCUCUACAUU [AK3 EXC Tryptophan A] | 124 nM | 95.7 nM | 103 nM | 101 nM | 363 nM
UUAUCACCCUAAGGAUAUAGCUAAGUGAUGUUUAGCUCGUCGCAGGGUAAACACUAGGCCCAAAGGCUAGAAGGUAGCUGGUACC [theeternabot_exclusion_KL_FMN_B_35] | 70.6 nM | 66.9 nM | 74 nM | 81.3 nM | 69.6 nM
UUAUUAAUCGCAGAUACCAGUCCAGAAUGAAUACUAUAGUGAUGUUAUAAUAAAGGGAAGGACCCUUGGCAGCUGUAAUAUAUUU [AstrosSsTheB#3] | 371 nM | 278 nM | 401 nM | 240 nM | 280 nM
UUAUUAUAUUGUAAUGAUAUAGAAACCGAAGGAGCGACAUAAAAGUCAGGUAGGUCGCGGUGUACUCAGUGAUGUUGAGAGUAUU [JR_SSArginiA_Sub013] | 141 nM | 265 nM | 172 nM | 271 nM | 100 nM
UUCUAACACACCGAUACCAGAGCCCAGUGAUGUUGGGCCUAGGUCGGAUGCUCACUGACGCUCCCUUGGCAGCGGUGGGCUAACC [Arreisve] | 127 nM | 112 nM | 116 nM | 110 nM | 114 nM
UUCUACGUGCAAGGAUAUCCAUACGCUGCUAAGCGGGUAGCGAUAUAUGGAGUGAUGUUCCAUGUAGGAGAAGGUGCACUGUCCU [Rieser] | 144 nM | 295 nM | 348 nM | 253 nM | 242 nM
UUCUCUCAGGCACGCGAGUGAUGUUCGCGGCGAGGACCGGUACGGCCGCCACUCGCGCCUGAGAGAGGUUAUCAAAGAUAGCCUU [whbob_SS_tryp_A] | 163 nM | 92.3 nM | 94.7 nM | 186 nM | 208 nM
UUCUUGAUGGAAACAUCGAGGAUCACUGAUACCAGUAUCGAUAGAUACCCUUGGCAGCAGUGUCGGUGGUCACGAGUGAUGUUCG [Ex Theophylline A K4 12] | 718 nM | 731 nM | 811 nM | 719 nM | 787 nM
UUCUUGAUGGAAACAUCGAGGAUUACUGAUACCAGUAUCGAUAGAUACCCUUGGCAGCAGUAUCGGUGAUCACGAGUGAUGUUCG [Ex Theophylline A K4 11] | 669 nM | 576 nM | 785 nM | 757 nM | 607 nM
UUUAAAUAUAGUGAUGUUAUAUAACAAUGACGAGGACCGGUACGGCCGCCACUCGAGAGAGAUAAUGGUCUUACAAAUGUAAGUU [AstrosSSTryA#9] | 567 nM | 646 nM | 793 nM | 822 nM | 481 nM
UUUAGGAACUGAGGAUAUUCGAAGAAAUAUAGUGAUGUUAUAUAAGGAGGAGGAGGGAGGGAGGAAGGAGAAGGCAGAAGAGGAG [ExFMNB.E] | 368 nM | 243 nM | 246 nM | 330 nM | 248 nM
UUUAUAAAGUCGGCCGCCACUGGAUUUAUAUUUGUUUAAUCUGGAUCAAAGUGAUGUUUUGAGUCCAGGACCGGGACAUUUGUUA [JR_ExcTryptoB_Sub002] | 125 nM | 123 nM | 124 nM | 135 nM | 232 nM

Reference: the supplement of paper PMC9170038
